Results taken from the supplement of paper PMC10567573.

B1: ZNF449 (parent)
chain: QLTGHQRIHSGEEPHKCPECGKRF
B2: C8orf76 (parent)
chain: YCAKLCEPQWFYEETESSDDVEVL

Variants of: B1
Assay: protein stability index of a GFP-peptide fusion (GPS, HEK-293T) (PSI 1-6); higher = more stable
Details: c terminus: a fixed tail appended
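Note: lentivirally expressed fusions sorted by FACS into six bins by GFP to DsRed ratio, PSI derived from sequencing read proportions per bin multiplied by bin number.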

| Variant | protein stability index |
| --- | --- |
| QLTGHQRIHSGEEPHWCPECGKRF | 4.14 |
| QLTGHQRIHSGEEPHNCPECGKRF | 4.54 |
| QLTGHQRIHSGEEPHYCPECGKRF | 3.61 |
| QLTGHQRIHSGEEPHSCPECGKRF | 5.11 |
| QLTGHQRIHSGEEPHTCPECGKRF | 4.43 |
| QLTGHQRIHSGEEPHVCPECGKRF | 4.58 |
| QLTGHQRIHSGEEPHICPECGKRF | 4.48 |
| QLTGHQRIHSGEEPHPCPECGKRF | 4.23 |
| QLTGHQRIHSGEEPHMCPECGKRF | 3.94 |
| QLTGHQRIHSGEEPHHCPECGKRF | 5 |
| QLTGHQRIHSGEEPHRCPECGKRF | 3.41 |
| QLTGHQRIHSGEEPHQCPECGKRF | 4.3 |
| QLTGHQRIHSGEEPHLCPECGKRF | 4.48 |
| QLTGHQRIHSGEEPHKCPEDGKRF | 5.03 |
| QLTGHQRIHSGEEPHKCPEFGKRF | 4.39 |
| QLTGHQRIHSGEEPHKCPEAGKRF | 4.35 |
| QLTGHQRIHSGEEPHKCPEYGKRF | 4.67 |
| QLTGHQRIHSGEEPHKCPERGKRF | 5.4 |
| QLTGHQRIHSGEEPHKCPEHGKRF | 4.46 |
| QLTGHQRIHSGEEPHKCPEVGKRF | 3.71 |
| QLTGHQRIHSGEEPHKCPEKGKRF | 4.99 |
| QLTGHQRIHSGEEPHKCPEEGKRF | 5.41 |
| QLTGHQRIHSGEEPHKCPEGGKRF | 4.49 |
| QLTGHQRIHSGEEPHKCPEWGKRF | 4.34 |
| QLTGHQRIHSGEEPHKCPETGKRF | 4.87 |
| QLTGHQRIHSGEEPHKCPESGKRF | 4.37 |

| Variant | protein stability index |
| --- | --- |
| QLTGHQRIHSGEEPHKCPEPGKRF | 4.61 |
| QLTGHQRIHSGEEPHKCPELGKRF | 4.05 |
| QLTGHQRIHSGEEPHKCPEQGKRF | 4.79 |
| QLTGHQRIHSGEEPHKCPEMGKRF | 3.82 |
| QLTGHQRIHSGEEPHKCPENGKRF | 4.49 |
| QLTGHQRIHSGEEPHKCPEIGKRF | 4.36 |
| QLTGHQRIHSGEEPHKCPECNKRF | 4.47 |
| QLTGHQRIHSGEEPHKCPECQKRF | 4.47 |
| QLTGHQRIHSGEEPHKCPECEKRF | 4.87 |
| QLTGHQRIHSGEEPHKCPECKKRF | 4.41 |
| QLTGHQRIHSGEEPHKCPECFKRF | 4.19 |
| QLTGHQRIHSGEEPHKCPECIKRF | 4.34 |
| QLTGHQRIHSGEEPHKCPECHKRF | 4.08 |
| QLTGHQRIHSGEEPHKCPECTKRF | 4.47 |
| QLTGHQRIHSGEEPHKCPECCKRF | 3.77 |
| QLTGHQRIHSGEEPHKCPECWKRF | 3.73 |
| QLTGHQRIHSGEEPHKCPECAKRF | 4.21 |
| QLTGHQRIHSGEEPHKCPECYKRF | 3.6 |
| QLTGHQRIHSGEEPHKCPECDKRF | 4.36 |
| QLTGHQRIHSGEEPHKCPECPKRF | 4.7 |
| QLTGHQRIHSGEEPHKCPECVKRF | 4.49 |
| QLTGHQRIHSGEEPHKCPECMKRF | 4.53 |
| QLTGHQRIHSGEEPHKCPECLKRF | 4.6 |
| QLTGHQRIHSGEEPHKCPECSKRF | 4.32 |
| QLTGHQRIHSGEEPHKCPECRKRF | 4.34 |
| QLTGHQRIHSGEEPHKCPECGKRA | 5.07 |

| Variant | protein stability index |
| --- | --- |
| QLTGHQRIHSGEEPHKCPECGKRY | 4.58 |
| QLTGHQRIHSGEEPHKCPECGKRN | 4.4 |
| QLTGHQRIHSGEEPHKCPECGKRM | 4.13 |
| QLTGHQRIHSGEEPHKCPECGKRL | 4.64 |
| QLTGHQRIHSGEEPHKCPECGKRG | 4.7 |
| QLTGHQRIHSGEEPHKCPECGKRQ | 4.62 |
| QLTGHQRIHSGEEPHKCPECGKRC | 5.12 |
| QLTGHQRIHSGEEPHKCPECGKRT | 4.83 |
| QLTGHQRIHSGEEPHKCPECGKRI | 3.65 |
| QLTGHQRIHSGEEPHKCPECGKRH | 4.84 |
| QLTGHQRIHSGEEPHKCPECGKRE | 4.88 |
| QLTGHQRIHSGEEPHKCPECGKPF | 4.28 |
| QLTGHQRIHSGEEPHKCPECGKFF | 3.98 |
| QLTGHQRIHSGEEPHKCPECGKKF | 5.28 |
| QLTGHQRIHSGEEPHKCPECGKCF | 3.93 |
| QLTGHQRIHSGEEPHKCPECGKGF | 4.32 |
| QLTGHQRIHSGEEPHKCPECGKTF | 4.52 |
| QLTGHQRIHSGEEPHKCPECGKMF | 4.06 |
| QLTGHQRIHSGEEPHKCPECGKAF | 4.91 |
| QLTGHQRIHSGEEPHKCPECGKNF | 3.95 |
| QLTGHQRIHSGEEPHKCPECGKVF | 4.72 |
| QLTGHQRIHSGEEPHKCPECGKLF | 4.74 |
| QLTGHQRIHSGEEPHKCPECGKQF | 3.44 |
| QLTGHQRIHSGEEPHKCPECGKEF | 5.37 |
| QLTGHQRIHSGEEPHKCPECGKDF | 4.99 |
| QLTGHQRIHSGEEPHKCPECGKWF | 3.92 |

| Variant | protein stability index |
| --- | --- |
| QLTGHQRIHSGEEPHKCPECGKHF | 4.23 |
| QLTGHQRIHSGEEPHKCPECGKSF | 4.83 |
| QLTGHQRIHSGEEPHKCPYCGKRF | 3.95 |
| QLTGHQRIHSGEEPHKCPPCGKRF | 4.23 |
| QLTGHQRIHSGEEPHKCPWCGKRF | 3.61 |
| QLTGHQRIHSGEEPHKCPDCGKRF | 3.4 |
| QLTGHQRIHSGEEPHKCPICGKRF | 3.37 |
| QLTGHQRIHSGEEPHKCPMCGKRF | 4.05 |
| QLTGHQRIHSGEEPHKCPFCGKRF | 3.69 |
| QLTGHQRIHSGEEPHKCPKCGKRF | 3.33 |
| QLTGHQRIHSGEEPHKCPLCGKRF | 3.16 |
| QLTGHQRIHSGEEPHKCPHCGKRF | 4.12 |
| QLTGHQRIHSGEEPHKCPSCGKRF | 3.62 |
| QLTGHQRIHSGEEPHKCPRCGKRF | 3.15 |
| QLTGHQRIHSGEEPHKCPTCGKRF | 4.03 |
| QLTGHQRIHSGEEPHKCPGCGKRF | 3.09 |
| QLTGHQRIHSGEEPHKCPVCGKRF | 4.53 |
| QLTGHQRIHSGEEPHKCPQCGKRF | 3.23 |
| QLTGHQRIHSGEEPHKCPCCGKRF | 2 |
| QLTGHQRIHSGEEPHKCPNCGKRF | 4.01 |
| QLTGHQRIHSGEEPHKWPECGKRF | 3.92 |
| QLTGHQRIHSGEEPHKFPECGKRF | 4.6 |
| QLTGHQRIHSGEEPHKQPECGKRF | 4.38 |
| QLTGHQRIHSGEEPHKVPECGKRF | 4.76 |
| QLTGHQRIHSGEEPHKIPECGKRF | 4.4 |
| QLTGHQRIHSGEEPHKYPECGKRF | 4.26 |

| Variant | protein stability index |
| --- | --- |
| QLTGHQRIHSGEEPHKGPECGKRF | 3.56 |
| QLTGHQRIHSGEEPHKKPECGKRF | 5.14 |
| QLTGHQRIHSGEEPHKDPECGKRF | 5.48 |
| QLTGHQRIHSGEEPHKSPECGKRF | 4.43 |
| QLTGHQRIHSGEEPHKMPECGKRF | 4.72 |
| QLTGHQRIHSGEEPHKHPECGKRF | 4.17 |
| QLTGHQRIHSGEEPHKAPECGKRF | 4.4 |
| QLTGHQRIHSGEEPHKRPECGKRF | 4.36 |
| QLTGHQRIHSGEEPHKTPECGKRF | 3.98 |
| QLTGHQRIHSGEEPHKEPECGKRF | 4.89 |
| QLTGHQRIHSGEEPHKNPECGKRF | 4.3 |
| QLTGHQRIHSGEEPHKPPECGKRF | 4.71 |
| QLTGHQRIHSGEEPHKLPECGKRF | 4.58 |
| QLTGHQRIHSGEEPHKCPECGQRF | 3.85 |
| QLTGHQRIHSGEEPHKCPECGERF | 4.62 |
| QLTGHQRIHSGEEPHKCPECGSRF | 4.71 |
| QLTGHQRIHSGEEPHKCPECGARF | 4.72 |
| QLTGHQRIHSGEEPHKCPECGHRF | 4.3 |
| QLTGHQRIHSGEEPHKCPECGPRF | 4.22 |
| QLTGHQRIHSGEEPHKCPECGRRF | 4 |
| QLTGHQRIHSGEEPHKCPECGYRF | 4.3 |
| QLTGHQRIHSGEEPHKCPECGCRF | 4.2 |
| QLTGHQRIHSGEEPHKCPECGIRF | 3.73 |
| QLTGHQRIHSGEEPHKCPECGMRF | 4.43 |
| QLTGHQRIHSGEEPHKCPECGTRF | 4.21 |
| QLTGHQRIHSGEEPHKCPECGVRF | 4.51 |

| Variant | protein stability index |
| --- | --- |
| QLTGHQRIHSGEEPHKCPECGLRF | 4.29 |
| QLTGHQRIHSGEEPHKCPECGFRF | 4.03 |
| QLTGHQRIHSGEEPHKCPECGNRF | 4.16 |
| QLTGHQRIHSGEEPHKCPECGWRF | 3.6 |
| QLTGHQRIHSGEEPHKCPECGDRF | 4.49 |
| QLTGHQRIHSGEEPHKCMECGKRF | 4.14 |
| QLTGHQRIHSGEEPHKCYECGKRF | 3.64 |
| QLTGHQRIHSGEEPHKCFECGKRF | 3.41 |
| QLTGHQRIHSGEEPHKCTECGKRF | 3.98 |
| QLTGHQRIHSGEEPHKCGECGKRF | 4.21 |
| QLTGHQRIHSGEEPHKCSECGKRF | 4.46 |
| QLTGHQRIHSGEEPHKCHECGKRF | 3.61 |
| QLTGHQRIHSGEEPHKCAECGKRF | 3.92 |
| QLTGHQRIHSGEEPHKCRECGKRF | 4.4 |
| QLTGHQRIHSGEEPHKCEECGKRF | 4.17 |
| QLTGHQRIHSGEEPHKCQECGKRF | 4.02 |
| QLTGHQRIHSGEEPHKCKECGKRF | 4.15 |
| QLTGHQRIHSGEEPHKCCECGKRF | 3.74 |
| QLTGHQRIHSGEEPHKCLECGKRF | 3.92 |
| QLTGHQRIHSGEEPHKCWECGKRF | 3.4 |
| QLTGHQRIHSGEEPHKCDECGKRF | 5.02 |
| QLTGHQRIHSGEEPHKCIECGKRF | 3.88 |
| QLTGHQRIHSGEEPHKCNECGKRF | 4.3 |
| QLTGHQRIHSGEEPHKCVECGKRF | 4.55 |

Variants of: B2
Assay: as above
Details: c terminus: a fixed tail appended

| Variant | protein stability index |
| --- | --- |
| YKAKLCEPQWFYEETESSDDVEVL | 4.17 |
| YHAKLCEPQWFYEETESSDDVEVL | 1.68 |
| YAAKLCEPQWFYEETESSDDVEVL | 1.94 |
| YIAKLCEPQWFYEETESSDDVEVL | 2.65 |
| YDAKLCEPQWFYEETESSDDVEVL | 4.96 |
| YNAKLCEPQWFYEETESSDDVEVL | 2.91 |
| YLAKLCEPQWFYEETESSDDVEVL | 2.94 |
| YMAKLCEPQWFYEETESSDDVEVL | 3.62 |
| YQAKLCEPQWFYEETESSDDVEVL | 2.51 |
| YRAKLCEPQWFYEETESSDDVEVL | 4.17 |
| YEAKLCEPQWFYEETESSDDVEVL | 4.91 |
| YPAKLCEPQWFYEETESSDDVEVL | 4.2 |
| YSAKLCEPQWFYEETESSDDVEVL | 3.63 |
| YFAKLCEPQWFYEETESSDDVEVL | 2.59 |
| YGAKLCEPQWFYEETESSDDVEVL | 3.72 |
| HCAKLCEPQWFYEETESSDDVEVL | 4.36 |
| ACAKLCEPQWFYEETESSDDVEVL | 4.42 |

| Variant | protein stability index |
| --- | --- |
| LCAKLCEPQWFYEETESSDDVEVL | 3.71 |
| CCAKLCEPQWFYEETESSDDVEVL | 4.28 |
| PCAKLCEPQWFYEETESSDDVEVL | 4.76 |
| ICAKLCEPQWFYEETESSDDVEVL | 3.45 |
| FCAKLCEPQWFYEETESSDDVEVL | 1.91 |
| WCAKLCEPQWFYEETESSDDVEVL | 3.66 |
| SCAKLCEPQWFYEETESSDDVEVL | 4.19 |
| VCAKLCEPQWFYEETESSDDVEVL | 4.2 |
| NCAKLCEPQWFYEETESSDDVEVL | 5.01 |
| TCAKLCEPQWFYEETESSDDVEVL | 5.11 |
| RCAKLCEPQWFYEETESSDDVEVL | 4.92 |
| KCAKLCEPQWFYEETESSDDVEVL | 4.66 |
| ECAKLCEPQWFYEETESSDDVEVL | 4.99 |
| MCAKLCEPQWFYEETESSDDVEVL | 4.26 |
| QCAKLCEPQWFYEETESSDDVEVL | 4.45 |
| DCAKLCEPQWFYEETESSDDVEVL | 5.04 |
| GCAKLCEPQWFYEETESSDDVEVL | 4.56 |
